Test results taken from a protein production outcome set (Wang et al. 2014).

Test: label from the status in PepcDB records

Sequence	protein production
MNMVQGSAFLAKLMKSADTFELKYDFSCELYRLSTYSTFPAGVPVSERSLARAGFYYTGVNDKVKCFSCGLMLDNWKQGDSPIEKHRKLYPSCSFVQTLNPANSLEASPQPPLPSTATSTMPSGFAASESTGYFSGSYSSFPSDPVNFRANQDCPAFSTSPYHFAMNTEKARLLTYQTWPLSFLSPAELAKAGFYYTGPGDRVACFACGGKLSNWDRKDDPLSEHRRHFPSCPFLKDVGQFTSQYTVSNLSMQTHAARVRTFSTWPSSALVHPQELASAGFYYTGHSDDVKCFCCDGGLRCWESGDDPWVEHAKWFPRCEYLIRIKGQEFVGQVQAGYPHLLEQLLSTSDSPEDETGEAAIVHLGPGENWEDAVMMNTPVVKAALDMGFSRSLVRQTVQRQILATGENYRTVSDLVIGLLDAEDEMREEQTEQEAEEEESDDLTLIRKNKMVLLQHLTPVTPILDCLLSARVITEQEYDAVKQKPHTLQARTLIDTVLAKGNTAATSFRNSLQEIDPGLYRDIFVRQNIRSLPTDDIAALPMEEQLRKLQEERTCKVCMDREVSLVFIPCGHLVVCKECAPSLRKCPICRGTIKGTVRTFLS	failed
MKILLKSLVISASLCSPFVLANSEAHSDYLKGTAYLNQDNYKEAITWLTSAANNGSIEAQNKIGTIYAKGIGTEANTQLATQYFLKAAANQSSMAYYNLGKIYESEEKYSTSIDWYNKAIEENNSNAMNNLADLYLHGKGLVQNTHQAELLYIQAAELGNATAMRNLGFLYTNNKEVKQDMSKAYFWFNLAAEKDFPDADKYRDYTGKKLSKSKRIKVQNEALEWLEQHNS	failed
MIFLIFSFIVLLIFGLANVYIYKRLIKKITLFKYFYKIFSFIFIVLFLAQAVFLIFRRDEYLSDTWYEILAMFYAPTYCLFFMTLAWDFVKLILALMGKRDKTYNLILRLIFELSLIVLSVFLIYVSINNALKTPEVKSVDVEIPNLKKDLKIVMLTDIHLGKNLHENFLDKLITKVNLQSPDMVVIVGDLIDTNPKDLKNYISKLNDFNSTYGTFYALGNHEYYHGINEVLDLLRKHTNMKILVNQNLDLGFINIAGLGDLAGLDRGLYAPDLARIKVDLNTSKASILLTHQPKTALLYDLSDFDLVLSGHTHGGQIFPFMFLVKLQQGFVHGLYDLGEKTKLYVSSGAGFWGPSLRVFAPSEIVILNLKGKK	failed
MITTIISSVVAFATTNIDDIFILLVLFSQVRTEVIRKEGRAVREKATRKKLYIVIGQYLGFSMIIFLSIIGSLSSFFIPVSWIGLLGFVPIYMGVKGLLSLRSYKSNEVIDNVTVSLFKVASITLANGADNISIYIPMFASQTLETNIVTLVIFFSMIAIWCFISYKLIKAPILAKVLEENCHIIVPIVLIGLGMFILFRSGTIGLFS	failed
MKKLSFFLIATLSLGACSTATSPTGRHQVFSGVSQQQLNQLGEQAFVEIKAKEKISGNVRQNAYVRCVVDALVTELPLQWRHVKWETVLFLNEEPNAFALPGGKVGVNTGIFRAAKNQEQLAAVLGHEIGHVVSRHHEERITWQLGTQAGLGLLGVLAGTAYGDSAATAVNQIGGLTAQAAFLLPGSRTQEREADIVGQRLMAQAGFDPIQAVYLWKNMLAIAGQRPPQWLSTHPDPTNRIRQLEQQSAVLASVYAQARDAGRVPHCSPAALEHHHHHH	failed
MAEATSALRKPVFTKVNELRPGTNGHSLNVKVVNTKMVMQRGGGRPMGPQSRQMRIAECLVGDETGIIIFTARNDQVDMMKEGSVVTLRNAKIDMYKGSMRLAVDRWGRVEVAEEPTDITVKDDNNLSLIEYELVSVET	failed
MATFRKRGKYWEYRVKYTDSAGKQLVASHGGYRLKSSAQDAAEAVEDDLKRGGDPSKQDVLLLDYWDQWAEAYRINGKSINTVYRYKLFRKHLKSRFDGRKLNSIRPIEWQKFINDFAAGKDRKEKTTRKRPRERSKDIVTKMNSYVRGMVKAAINERILFSDFTFGTKTSGVRSSGKVKVLDSRDFAKVKAIAIERASYRNIGALAVYIGSMTGMRISEVLALTWPDIDTKLCVIHVTRSWDHLYGTGFKPTKTDSSVRDIEISPSVIELLNKIHQEQAASYLRTGYRDEDQMIMRDPRHNVITDSACNKALHVIQNKAGIPEDKQITFHGLRHSHVSYLISKGVDIYYISKRLGHSDVTITMKVYGHLLDSQRKQEAHKAVLFMDQI	failed
HYGEEPELVPSYTIFFSGCNFRCVFCQNWDISQFRVGVELLPEYLALKIERAYRFGARNVNFVGGEPTPNLPYILETLRYVNVPIPVVWNSNMYMSEEAMKLLDGIVD	failed
MSRVSLRLWDPLVRLFHVSIAGVFVANYFFNEAGDDWHIWLGYYAVAWLAVRVVWGFLGPTSARWSDFWPSPARLRAHVRSLIDRKPVHRLGHSPLGALVMVLMMALIFGMGLTGFLMEEVDALWGADWPLQTHEILANTLCALVVLHMAAAIFESFQVRDNLPLSMLTGKRRPLPEDDYR	failed
MSLINEATLAESIRRLRQGERATLAQAMTLVESRHPRHQALSTQLLDAIMPYCGNTLRLGVTGTPGAGKSTFLEAFGMLLIREGLKVAVIAVDPSSPVTGGSILGDKTRMNDLARAEAAFIRPVPSSGHLGGASQRARELMLLCEAAGYDVVIVETVGVGQSETEVARMVDCFISLQIAGGGDDLQGIKKGLMEVADLIVINKDDGDNHTNVAIARHMYESALHILRRKYDEWQPRVLTCSALEKRGIDEIWHAIIDFKTALTASGRLQQVRQQQSVEWLRKQTEEEVLNHLFANEDFDRYYRQTLLAVKNNTLSPRTGLRQLSEFIQTQYFDEGHHHHHH	not failed
MRWNICVVGAGKIGQMIAALLKTSSNYSVTVADHDLAALAVLNRMGVATKQVDAKDEAGLAKALGGFDAVISAAPFFLTPIIAKAAKAAGAHYFDLTEDVAATNAVRALAEDSQT	not failed
MPTIRINKLTDPVVFLHILFFLIIASSSLTYWKMSDYAVNQSWDAYFYKYSDYLDLVPTWEKILKDAFSLVLLLASIYFPRRKILDFSPNINLQRYYLSFILLFFLSLSNLFASRDVTNLTLFTIVAVIRPFLITASLLFFCHKHLNFFYFRIILECVNIIGIIQVYHSFLQRNSAIINNGLDWLHSGSARSVGTFADPNTLGRFLALLIMVNLFMLPPNIIRFFLIISYGIALFFTGSRASLLIIGIFILLFVAIKLSRQSIASTRAKNLTFAFLLTVPLLQFLLLRINLISNRADDTASPLQDGRYHILFNLINRLNPYEFIFGNYLGYGSNALILTGYDGSNFLSDSTPASLIGQFGITGLLLFILIVINLFKQTPRHININNSQDYLVLTGDLLQSRNALSFYLIISCFTTIIFESYAVIPILLGLIFYDNLDLKNIKF	failed
MPDPRGGAQGGGVSGQEGPTLISSVQRAFRLMEAVGAHESGVPAKQLARETGLALGTTYHLLRTMVHDGYVRKLEDGTFVLGERLGALHAGSRDQTALSRVRPTLTELRDDLSAAAYLTLYEEGEIRVAEIVDGPKAPRVDLWVGFEDAGHATALGKSVLRELDAEARADYLSRHALNDLTPRTITYRAQLLRSLDAAPRGPAVTDLEEYRLGTACVAVPVRRGDTIGSLGISVDINRTACLDDAVTTLLATAERVSRGLSLTI	failed
MAQPSTTYKFELNLTDLDRGVYESVKQTIARHPSETEERMTVRLLAYAFWYNEQLAFGRGLSDVDEPALWEKSLDDRVLHWIEVGQPDADRLTWCSRRTERTSLLAYGSLRVWEGKVIPAIKNLKNVNIAAVPQDVLEVLAKDMPRVIKWDVMISEGTVFVTDDRGQHEVQLQWLTGERG	not failed
MPYKNILTLISVNNDNFENYFRKIFLDVRSSGSKKTTINVFTEIQYQELVTLIREALLENIDIGYELFLWKKNEVDIFLKNLEKSEVDGLLVYCDDENKVFMSKIVDNLPTAIKRNLIKDFCRKLS	not failed
MLKGFTRSSISPQLCSLYFKGLVGDDSLAGFGVAICGHRDDILFQLNAPIHGSDITVLEAELMALKRGLIEAAGFKSSFTIFVEGSSIRYVSELARATIVSELSISVDPPSSSLNGIEKLKLEDVIVWNVVNPYASTAKFGKSENVASMWKVPTHDRTFRRMHQSNLQFTFDFLGCWIGVAIRFATHAEQNGSKEVALIEQ	failed
MPNNHLTAAAPAQGREAIASPMERFSQAMVAWAEKWFPDAYVFVVVACAVVALGAILHGGDPLAVSKAFGEGFWSIIPLTMQMAMVAITGYVLALSPPVARLLRALARVPSTPRGAVVFIGTLSILLSLVNWGLSLIFSGLLVREMARRNDLRLDYRAAGAAGYLGLGCGFTLGMSSSAAQLQATPASIPASLMPITGVIGFSETILTWQNLVVVILVTVVSGLVCYFTAPSPERSLTAQDLGVDLTEPEAQAAQRQRPGDYLEFSPWLTVAVVGLASGWLYLTFRSGNPFITMSQLNTYNFVFLLLGLLLHWRPRSFLESFGRAMPSIGGVMLQFPFYGGIGYVLTKVANVQGHTLSDAIAHWFVSLAHDSSVFSILVSIYSAFLGFFIPSAGGKWVIEAPYIMDAANQIQAHLGWTVMVYNIAETLPNFINPFWMLPLLGILRLKSKDLVGYTAMQFLVHFPIVVAAGAILMHTFSYVPPVIPGQ	failed
MKVLTVVIPCYNSAEYMDRAIESLLIGDEELEILIVNDGSMDNTSIIADEYEKKYPNTIRVIHKENGGHGDAINTGLKHSKGVYFKVLDSDDWFDKASLKKVLEVLKNMIKDSKSLDMLISNYVYENFSINKSRSINYKGAMPKEKIFTWDSLGHLKSSQNILMHSVIYRTELLRECNLDLPKHTFYVDNIFVYKPLPYVKTMYYLDVDLYRYFIGREDQSVNEKVMIKRIDQQIKVTKILIDCYNPMLLNCKKLRKYMVKYLVMMMTVSTVLLIKDNTEQSLNKKRELWSYLHSKNRKLYFEVNKSFLGLLIQIKGFVGRKIILLGYSLSRKVFGFNLEHHHHHH	failed
MPTFLLVNDDGYFSPGINALREALKSLGRVVVVAPDRNLSGVGHSLTFTEPLKMRKIDTDFYTVIDGTPADCVHLGYRVILEEKKPDLVLSGINEGPNLGEDITYSGTVSGAMEGRILGIPSIAFSAFGRENIMFEEIAKVCVDIVKKVLNEGIPEDTYLNVNIPNLRYEEIKGIKVTRQGKRAYKERVFKYIDPYGKPFYWIAAEEFGWHAEEGTDYWAVLNGYVSVTPLHLDLTNYKVMKSIKYLEDSP	not failed
MTVNVYDLANELERGIRALPEYQALVQAKAKIDEDEEAKKLWTEFTEFQMKIQGLIQTGQAPTPEVQTEMQSFNQKIEANPLLKEYATAQQALGVYVNDIERIIFSPLQDIAK	not failed
MTKIYFAGPLFSQADLRYNAYLVEQIRQLDKTIDLYLPQENAAINDKSAYADSKMIALADTENVLASDLLVALLDGPTIDAGVASEIGVAYAKGIPVVALYTDSRQQGADNHQKLDALNEIAENQFHYLNLYTVGLIKLNGRVVSSEEDLLEEIKQRLS	not failed
QKRPLIMIGGSSSTRTDFDDIVRSLNEQQHHPLITLTVKANQKLAFKEKRVENTNLNDALIVIFFEDSTDSTENIMTQTNGLAKAIRYLQRHQHLTTANALGYSNGGLIWSRYLAGLSSSKPLAVHDLMLIGTPFLGTDAAH	failed
MGHHHHHHSHMIEHDPVKPRQLPKTIGCSKNFPGKTALATREQVQWWLLQLAQELEERLTKDRNDNDRVATQLVVSIRVQGDKRLSSLRRCCALTRYDAHKMSHDAFTVIKNCNTSGIQTEWSPPLTMLFLCATKFSASAP	not failed
